According to IntAct's records for PubMed 29039417:

B1: BBSome complex member BBS4 (Homo sapiens), Q96RK4 (parent)
chain: MAEERVATRTQFPVSTESQKPRQKKAPEFPILEKQNWLIHLHYIRKDYEACKAVIKEQLQETQGLCEYAIYVQALIFRLEGNIQESLELFQTCAVLSPQSADNLKQVARSLFLLGKHKAAIEVYNEAAKLNQKDWEISHNLGVCYIYLKQFNKAQDQLHNALNLNRHDLTYIMLGKIHLLEGDLDKAIEVYKKAVEFSPENTELLTTLGLLYLQLGIYQKAFEHLGNALTYDPTNYKAILAAGSMMQTHGDFDVALTKYRVVACAVPESPPLWNNIGMCFFGKKKYVAAISCLKRANYLAPFDWKILYNLGLVHLTMQQYASAFHFLSAAINFQPKMGELYMLLAVALTNLEDIENAKRAYAEAVHLDKCNPLVNLNYAVLLYNQGEKKNALAQYQEMEKKVSLLKDNSSLEFDSEMVEMAQKLGAALQVGEALVWTKPVKDPKSKHQTTSTSKPASFQQPLGSNQALGQAMSSAAAYRTLPSGAGGTSQFTKPPSLPLEPEPAVESSPTETSEQIREK
partner: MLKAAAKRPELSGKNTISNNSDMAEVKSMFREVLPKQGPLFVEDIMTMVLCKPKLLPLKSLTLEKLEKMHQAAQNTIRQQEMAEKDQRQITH

Variants of: B1
Settings: with bbip1_human BBIP1, A8MTZ0

effect of a mutation on the interaction | Variant
with no effect | L468K
with no effect | L468A
with no effect | L468E
with no effect | S474A
with no effect | S474K
with no effect | S474E
with no effect | E432A
with no effect | E432K
with no effect | S464K
with no effect | S464A
with no effect | S464E
with no effect | M472E
with no effect | M472K
with no effect | M472A
with no effect | A471E
with no effect | A471K
with no effect | T480E
with no effect | T480A
with no effect | T480K
with no effect | K493E
with no effect | K493A
with no effect | G484K
with no effect | G484A
with no effect | G484E

effect of a mutation on the interaction | Variant
with no effect | H447K
with no effect | H447E
with no effect | H447A
with no effect | G486E
with no effect | G486A
with no effect | G486K
with no effect | V440E
with no effect | V440A
with no effect | V440K
with no effect | K454A
with no effect | K454E
with no effect | N465E
with no effect | N465A
with no effect | N465K
with no effect | P498K
with no effect | P498E
with no effect | P498A
with no effect | S445E
with no effect | S445K
with no effect | S445A
with no effect | P455K
with no effect | P455E
with no effect | P455A
with no effect | T437A

effect of a mutation on the interaction | Variant
with no effect | T437E
with no effect | T437K
with no effect | A475K
with no effect | A475E
with no effect | G463A
with no effect | G463K
with no effect | G463E
with no effect | L497K
with no effect | L497E
with no effect | L497A
with no effect | F458E
with no effect | F458K
with no effect | F458A
with no effect | P443E
with no effect | P443K
with no effect | P443A
with no effect | A456E
with no effect | A456K
with no effect | L462E
with no effect | L462K
with no effect | L462A
with no effect | S483K
with no effect | S483E
with no effect | S483A

effect of a mutation on the interaction | Variant
with no effect | L481E
with no effect | L481A
with no effect | L481K
with no effect | L434E
with no effect | L434K
with no effect | L434A
with no effect | Q460K
with no effect | Q460A
with no effect | Q460E
with no effect | S473E
with no effect | S473K
with no effect | S473A
with no effect | P439K
with no effect | P439E
with no effect | P439A
with no effect | Q459K
with no effect | Q459A
with no effect | Q459E
with no effect | P482E
with no effect | P482K
with no effect | P482A
with no effect | K438A
with no effect | K438E
with no effect | L499A

effect of a mutation on the interaction | Variant
with no effect | L499E
with no effect | T449K
with no effect | T449A
with no effect | T449E
with no effect | A485K
with no effect | A485E
with no effect | T450K
with no effect | T450A
with no effect | T450E
with no effect | P495K
with no effect | P495E
with no effect | P495A
with no effect | Q490A
with no effect | Q490E
with no effect | Q490K
with no effect | A476K
with no effect | A476E
with no effect | G469K
with no effect | G469E
with no effect | G469A
with no effect | S496E
with no effect | S496A
with no effect | S496K
with no effect | K444A

effect of a mutation on the interaction | Variant
with no effect | K444E
with no effect | F491E
with no effect | F491K
with no effect | F491A
with no effect | A433K
with no effect | A433E
with no effect | Q470K
with no effect | Q470E
with no effect | Q470A
with no effect | Q466A
with no effect | Q466E
with no effect | Q466K
with no effect | S457A
with no effect | S457E
with no effect | S457K
with no effect | K446A
with no effect | K446E
with no effect | T452E
with no effect | T452K
with no effect | T452A
with no effect | W436A
with no effect | W436K
with no effect | W436E
with no effect | S453K

effect of a mutation on the interaction | Variant
with no effect | S453E
with no effect | S453A
with no effect | G487K
with no effect | G487A
with no effect | G487E
with no effect | Y478E
with no effect | Y478A
with no effect | Y478K
with no effect | K441E
with no effect | K441A
with no effect | S451K
with no effect | S451E
with no effect | S451A
with no effect | P461E
with no effect | P461A
with no effect | P461K
with no effect | P494A
with no effect | P494K
with no effect | P494E
with no effect | A477E
with no effect | A477K
with no effect | T488A
with no effect | T488K
with no effect | T488E

effect of a mutation on the interaction | Variant
with no effect | V435K
with no effect | V435E
with no effect | V435A
with no effect | S489A
with no effect | S489E
with no effect | S489K
with no effect | Q448E
with no effect | Q448A
with no effect | Q448K
with no effect | A467K
with no effect | A467E
with no effect | T492A
with no effect | T492K
with no effect | T492E
with no effect | D442E
with no effect | D442K
with no effect | D442A
with no effect | R479E
with no effect | R479K
with no effect | R479A
